Source: paper PMC3830488, “WRKY76 is a rice transcriptional repressor playing opposite roles in blast disease resistance and cold stress tolerance”

T1: MBP-OsWRKY76 (Oryza sativa (rice), UniProt Q6EPZ2 1-327)
T1 sequence: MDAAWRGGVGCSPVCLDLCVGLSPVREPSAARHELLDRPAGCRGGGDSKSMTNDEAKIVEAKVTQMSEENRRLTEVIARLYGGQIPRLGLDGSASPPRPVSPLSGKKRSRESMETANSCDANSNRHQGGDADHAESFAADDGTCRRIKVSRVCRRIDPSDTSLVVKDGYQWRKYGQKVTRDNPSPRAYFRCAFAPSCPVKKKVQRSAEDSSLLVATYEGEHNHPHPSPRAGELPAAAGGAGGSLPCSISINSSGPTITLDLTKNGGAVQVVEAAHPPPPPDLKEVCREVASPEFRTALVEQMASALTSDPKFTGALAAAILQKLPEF

B1: WB unlabelled competitor (dsDNA)
DNA 1: AACTTTGACCAATCTTTCAAGTA
DNA 2: TACTTGAAAGATTGGTCAAAGTT
B2: WB (W-box probe) (dsDNA)
DNA 1: AACTTTGACCAATCTTTCAAGTA
DNA 2: TACTTGAAAGATTGGTCAAAGTT
B3: mWB (mutated W-box probe) (dsDNA)
DNA 1: AACTTTGAACAATCTTTCAAGTA
DNA 2: TACTTGAAAGATTGTTCAAAGTT
B4: mWB unlabelled competitor (dsDNA)
DNA 1: AACTTTGAACAATCTTTCAAGTA
DNA 2: TACTTGAAAGATTGTTCAAAGTT

Legend:
MBP-OsWRKY76 [1] = biological target: T1, MBP-OsWRKY76; assay: competition; excess unlabelled WB vs DIG-WB; DIG Gel Shift Kit 2nd generation (Roche); buffer, salt, pH and temperature not stated; conditions: protein: recombinant; tags: MBP (N-terminal, pMALc2x)
MBP-OsWRKY76 [2] = biological target: T1, MBP-OsWRKY76; assay: EMSA; DIG Gel Shift Kit 2nd generation (Roche); buffer, salt, pH and temperature not stated; conditions: protein: recombinant; tags: MBP (N-terminal, pMALc2x); label: DIG
MBP-OsWRKY76 [3] = biological target: T1, MBP-OsWRKY76; assay: competition; excess unlabelled mWB vs DIG-WB; DIG Gel Shift Kit 2nd generation (Roche); buffer, salt, pH and temperature not stated; conditions: protein: recombinant; tags: MBP (N-terminal, pMALc2x)

Binder | binding result (MBP-OsWRKY76 [2]) | also measured
B1 | – | binding result (MBP-OsWRKY76 [1]): binds
B2 | binds | –
B3 | no binding | –
B4 | – | binding result (MBP-OsWRKY76 [3]): no binding
